From FireProtDB (doi:10.1111/j.1399-3011.1991.tb01525.x)

Conditions: Aspergillus oryzae (strain ATCC 42149 / RIB 40), Thermal, DSC, glycine 0.05 M, reversible: yes, whole UniProt chain shown

B1: Guanyl-specific ribonuclease T1 wild type, P00651 (protein)
chain: MMYSKLLTLTTLLLPTALALPSLVERACDYTCGSNCYSSSDVSTAQAAGYQLHEDGETVGSNSYPHKYNNYEGFDFSVSSPYYEWPILSSGDVYSGGSPGADRVVFNENNQLAGVITHTGASGNNFVECT
For B1, the Tm (pH 2) was 39.2 °C, the “unfolding enthalpy (calorimetric)” value (pH 2) was 82 kcal/mol and the Tm (pH 2.5) was 45.6 °C. For the same protein, the “unfolding enthalpy (calorimetric)” value (pH 2.5) was 89.4 kcal/mol, the “heat capacity change of unfolding” value (pH 3, 40 °C) was 1.19 kcal/mol/K and the unfolding free energy (pH 3, 40 °C) was 2.94 kcal/mol. The Tm (pH 3) was 50.5 °C, the “unfolding enthalpy (calorimetric)” value (pH 3) was 97.3 kcal/mol and the Tm (pH 4) was 63.3 °C. The “unfolding enthalpy (calorimetric)” value (pH 4) was 110 kcal/mol.
